Source: US20240254202A1 (CONSEJO NACIONAL DE INVESTIGACIONES CIENT FICAS Y T CNICAS …, published 2024)

Key:
[1] = target: Peptide 84 of the Spike peptide array (B.E.I resources NR-52402); assay: peptide array ELISA, 100 ng peptide coated, 100 ng nanobody per well
[2] = target: T1, Receptor Binding Domain (RBD) of the SARS-COV-2 protein S (SARS-CoV-2, UniProt P0DTC2 319-541); assay: phage ELISA, RBD coated
[3] = target: T1, Receptor Binding Domain (RBD) of the …; assay: ELISA, purified nanobody, RBD coated
[4] = target: Spike protein of wild-type virus isolate USA-WA1/2020 (SARS-CoV-2, UniProt P0DTC2 14-1273); assay: cell-based or functional assay
[5] = target: Peptide 125 of the Spike peptide array (B.E.I resources NR-52402); assay: peptide array ELISA, 100 ng peptide coated, 100 ng nanobody per well
[6] = target: Peptide 175 of the Spike peptide array (B.E.I resources NR-52402); assay: as above
[7] = target: Peptide 59 of the Spike peptide array (B.E.I resources NR-52402); assay: as above
[8] = target: T1, Receptor Binding Domain (RBD) of the …; assay: as told in Example 8
[9] = target: Peptide 16 of the Spike peptide array (B.E.I resources NR-52402); assay: peptide array ELISA, 100 ng peptide coated, 100 ng nanobody per well

Binder | EC50 [3] [nM] | also measured
NbCoV_125 (VHH) VHH: QVQLQESGGGLVQPGGSLRLSCAASAHFFSGGAMGWYRQAPGKERELVATITGGGDTNYAEHVKGRCTISSDISDNTVYLQMISLKPDDTAVYYCYARDLLQHPFWGQGTQVTVSS |  | OD 405 nm [1]: 0.214 OD 405 nm; binding result [2]: binds
NbCoV_104 (VHH, also called Nb 104) VHH: QVQLQESGGGLVQPGGSLRLSCAASGSIFRVMGWYRQAPGKEHDLVATITRSGDTNYADSVKGRFTISRDNTKNTVYLQMNNLKPEDTDVYYCYARNFVGHNPDVWGQGTQVTVSS | 5.45 | wildtype VN, plaque reduction assay, neutralizing activity [4]: 0.977 nM; OD 405 nm [5]: 0.731 OD 405 nm; OD 405 nm [6]: 0.503 OD 405 nm
NbCoV_39 (VHH, also called Nb 39; 39A) VHH: QVQLQESGGGLVQAGGSLRLSCAASGRTFSSTAMAWFRQAPGQEREFVATISWSGDNTKYADSVKGRFTISRDNAKNTVYLQMNSLKPEDTAVYYCAADPGNFGVPIEYFMFDYWGQGTQVTVSS | 0.29 | wildtype VN, plaque reduction assay, neutralizing activity [4]: 0.244 nM; OD 405 nm [7]: 0.423 OD 405 nm
NbCoV_145 (VHH, also called Nb 145) VHH: QVQLQESGGGLVQAGGSLRLSCAASGRTFSSYAMGWFRQAPGKEREFVAVINWSGANTRYTDSVKGRFSISRDNAKNTVYLQMNSLKPEDTAVYYCAADPGNFGVPIEHFMYDYWGQGTQVTVSS | 4.63 | 
NbCoV_31 (VHH) VHH: QVQLQESGGGLVQAGGSLRLSCAASGRTFSRSAVAWFRQAPGKEREFVAGISWSGRNVNYANSVKGRFTISRDSTKNTVYLQMNSLKPEDTAVYYCATSQFGSGTSDSEQYDYWGQGTQVTVSS | 137 | 
NbCoV_29 (VHH) VHH: QVQLQESGGGLVQAGGSLRLSCAASGRTLYAMGWFRQAPGKEREFVAAKSWNGGNTYYADSVKGRFTISKDNAKNTVYLQMNSLKPEDTAVYNCAASSWDSRGSSNYVHYDYWGQGTQVTVSS | 55.9 | 
NbCoV_45 (VHH, also called Nb 45; Nb45) VHH: QVQLQESGGGLVQAGGSLRLSCVASGRTLYAMGWFRQAPGKEREFVAATSWNGGNTNYGESVKGRFTISKDNAKNTVYLQMNSLKPEDTAVYNCAASSRDSRGTSTYASYDYWGQGTQVTVSS |  | binding result [2]: no binding
NbCoV_32 (VHH) VHH: QVQLQESGGGSVQPGGSLRLSCAVSRSRFSLVTMGWYRQAPGKERELVAAIAIGGSTKYADSVKGRFTISRDNAKSTVYLQMNSLQPEDTAVYYCNEARVYDSNWYPRDYWGQGTQVTVSS | 83.6 | 
NbCoV_44 (VHH) VHH: QVQLQESGGGLVQAGGSLRLSCAASGRTVSYRVMGWFRQAPGKEREFVAFVDWSSGTAYYAESVQGRFIMSRDTADNTGFLQMNNLKPEDTAVYYCAADPFFRVIAYSDPKRYSYWGQGTQVTVSS | 16.8 | 
NbCoV_136 (VHH) VHH: QVQLQESGGGLVQTGGSLRLSCAASGRTASSYTMGWFRQAAGKERDFVAAIRESLGYTNYADSVKGRFTISRDNANNTVYLQMNSLKPEDTAVYYCAAYEGIRYSSTRADFYNYWGQGTQVTVSS | 13.4 | 
NbCoV_43 (VHH, also called Nb 43) VHH: QVQLQESGGGLVQPGGSLRLSCVASGSIGSINHMAWFRKPPGKERELVASITLAPDEIAYYADSVKGRFAISKGNAQPTLYLQMNSLKPEDTAVYYCHFRQIRANAHDVYWGQGTQVTVSS | 0.18 | wildtype VN, plaque reduction assay, neutralizing activity [4]: 3.12 nM; OD 405 nm [1]: 0.555 OD 405 nm
NbCoV_78 (VHH) VHH: QVQLQESGGGLVQAGGSLRLSCVASGRAFSSSSMGWFRQAPGKEREFVAAIRWSDDNTVYVDSVKGRFAISRDNAKNTVYLQMNSLKPEDTAVYYCAATGLGYRYAVLESRSEYRYWGQGTQVTVSS | 16.6 | 
NbCoV_46 (VHH) VHH: QVQLQESGGGLVQAGDSLRLSCAASGRTFSSLSAGWFRQAPGKEREFVAAIRWSDYNTYYVDSVKGRFTISRDNAKNTVYLQMDSLKPEDTAVYYCAATALGYRYASLESRNEYRYWGQGTQVTVSS |  | binding result [2]: no binding
NbCoV_10 (VHH, also called Nb 10; 10 Mebus) VHH: QVQLQESGGGLVQAGGSLHLSCTASGSENMLRWYAVGWYRQAPGKQRELVATITRGGSTNVVDSVKGRFTISRDNAKNMVALQMNSLKPEDTAVYSCAAAYAPYTDYHPVEYVYWGQGTQVTVSS |  | binding result [8]: binds; OD 405 nm [1]: 0.226 OD 405 nm
NbCoV_27 (VHH) VHH: QVQLQESGGGLVQPGGSLRLSCAASGSGFSLRVMGWYRQAPGKEHRLVATISRTGITNYADSVKGRFTISRDNAKDTVYLQMNNLKPEDTDVYYCYARNFVGDDFNLWGQGTQVTVSS | 0.7 | 
NbCoV_71 (VHH) VHH: QVQLQESGGGLVQAGGSLRLSCAASGLTFGYTATAWFRQAPGKEREFVARIFKRGGYTYYSDSVKGRFTVSRDSAKDTVYLQMNSLKSEDTAVYYCAVAREWSDLDFRDGYDYWGQGTQVTVSS | 1.63 | 
NbCoV_110 (VHH, also called Nb 110) VHH: QVQLQESGGGLVQAGDSLRLSCAASGRTFGSHATAWFRQAPGKEREFVARIFWRGDYTYYADSVKGRFTISRDSAKNTVYLQMNSLKSEDTAVYYCAVARSWSDLDFENGYDYWGQGTQVTVSS | 32.4 | OD 405 nm [9]: 0.64 OD 405 nm
NbCoV_48 (VHH) VHH: QVQLQESGGGLVQPGGSLRLSCVASRSIGSINHMAWYRKAPGKERELVASITLSPSETVYYTEVVKGRFAISKGNAQNTLYLQMNSLKPEDTAVYYCHFRQIRAIADDVYWGQGTQVTVSS | 1.78 | 
